B1: FM PEP: recombinant prolyl endopeptidase from Flavobacterium meningosepticum (Genbank D10980) (protein)
chain: QNSNVLKYPETKKVSHTDTYFGTQVSDPYRWLEDDRAEDTKAWVQQEVKFTQDYLAQIPFRDQLKKQLMDIWNYEKISAPFKKGKYTYFSKNDGLQAQSVLYRKDAAGKTEVFLDPNKFSEKGTTSLASVSFNKKGTLVAYSISEGGSDWNKIIILDAETKKQLDETLLDVKFSGISWLGDEGFFYSSYDKPKEGSVLSGMTDKHKVYFHKLGTKQSQDELIIGGDKFPRRYIGAYVTDDQRYLVVSAANATNGNELYIKDLKNKTDFIPIITGFDSNVNVADTDGDTLYLFTDKDAPNKRLVKTTIQNPKAETWKDVIAETSEPLEINTGGGYFFATYMKDAIDQVKQYDKNGKLVRAIKLPGSGNASGFGGEKTEKDLYYSFTNYITPPTIFKYNVTTGNSEVYQKPKVKFNPENYVSEQVFYTSSDGTKIPMMISYKKGLKKDGKNPTILYSYGGFNISLQPAFSVVNAIWMENGGIYAVPNIRGGGEYGKKWHDAGTKMQKKNVFNDFIAAGEYLQKNGYTSKEYMALSGRSNGGLLVGATMTMRPDLAKVAFPGVGVLDMLRYNKFTAGAGWAYDYGTAEDSKEMFEYLKSYSPVHNVKAGTCYPSTMVITSDHDDRVVPAHSFKFGSELQAKQSCKNPILIRIETNAGHGAGRSTEQVVAENADLLSFALYEMGIKSLK
B2: MX PEP: novel recombinant prolyl endopeptidase from Myxococcus xanthus (Genbank AF127082, SEQ ID NO:47) (protein, listed as Myxococcus xanthus)
chain: MSYPATRAEQVVDTLHGVQVADPYRWLEDEKAPEVQTWMTAQNAHAREALAKFPGREALAARFKELFYTDSVSTPSRRNGRFFYVRTHKDKEKAILYWRQGESGQEKVLLDPNGWSKDGTVSLGTWAVSWDGKKVAFAQKPNAADEAVLHVIDVDSGEWSKVDVIEGGKYATPKWTPDSKGFYYEWLPTDPSIKVDERPGYTTIRYHTLGTEPSKDTVVHERTGDPTTFLQSDLSRDGKYLFVYILRGWSENDVYWKRPGEKDFRLLVKGVGAKYEVHAWKDRFYVLTDEGAPRQRVFEVDPAKPARASWKEIVPEDSSASLLSVSIVGGHLSLEYLKDATSEVRVATLKGKPVRTVQLPGVGAASNLMGLEDLDDAYYVFTSFTTPRQIYKTSVSTGKSELWAKVDVPMNPEQYQVEQVFYASKDGTKVPMFVVHRKDLKRDGNAPTLLYGYGGFNVNMEANFRSSILPWLDAGGVYAVANLRGGGEYGKAWHDAGRLDKKQNVFDDFHAAAEYLVQQKYTQPKRLAIYGGSNGGLLVGAAMTQRPELYGAVVCAVPLLDMVRYHLFGSGRTWIPEYGTAEKPEDFKTLHAYSPYHHVRPDVRYPALLMMAADHDDRVDPMHARKFVAAVQNSPGNPATALLRIEANAGHGGADQVAKAIESSVDLYSFLFQVLDVQGAQGGVAAQGR

Columns and labels:
pepsin = assay: Gastric protease stability; format: in vitro ADME; settings: 1 mg/ml pepsin, pH 2
Method: FIG. 9. Resistance of the FM PEP and the MX PEP to inactivation by gastric and pancreatic enzymes. Pancreatic enzyme stability was evaluated by treating 5 U/ml of the FM PEP and the MX PEP with 1 mg/ml trypsin, 1 mg/ml chymotrypsin, 0.2 mg/ml elastase and 0.2 mg/ml carboxypeptidase A (40 mM phosphate, pH=6.5). Pepsin stability was tested by treating the FM PEP and the MX PEP (5 U/ml) with 1 mg/ml pepsin (pH=2, 20 mM HCl).
Gastric and Pancreatic Protease Stability. […] Absorption was measured at 410 nm for 1 to 2 min every 10 s to assay residual activity. […] Enzyme activities are expressed as a percentage of the maximum activity, typically observed at the zero time point.
PEP Stability. […] We therefore evaluated the extent to which the activity of each PEP remains intact after 10 min of incubation at selected pH values between 1.6 and 3.9. […] Since therapeutic efficacy would require a PEP to act upon gluten in conjunction with pancreatic proteases that are secreted into the duodenum, the resistance of FM PEP and MX PEP toward both gastric and pancreatic enzymes was evaluated. For this we pre-incubated the enzymes with physiological quantities of either pepsin (at pH 2) or a cocktail comprising of trypsin, chymotrypsin, elastase and carboxypeptidase A (at pH 6.5).

[1] = tested on: PQPQLPYPQPQLP and LQLQPFPQPQLPYPQPQLPYPQPQLPYPQPQPF; assay: Competitive proteolysis of 13-mer and 33-mer by each PEP; format: biochemical, wheat; settings: 50 μM PQPQLPYPQPQLP, 10 μM 33-mer, 0.1 μM PEP
Method: FIGS. 12A-12C. […] 10 μM of the longer peptide and 50 μM of the shorter peptide were co-incubated with 0.1 μM of (A) FM PEP; (B) MX PEP; (C) SC PEP.
To examine the chain length specificity of individual PEPs, we performed competitive reactions containing both gluten-derived peptides, subjected the reaction mixture to RP-HPLC, and monitored the disappearance of each substrate was monitored as a function of time.

[2] = tested on: PQPQLPYPQPQLP, 33-mer and pepsin-treated gluten; assay: Competitive proteolysis in pepsin-treated gluten with pancreatic enzymes and BBM; format: biochemical, wheat; settings: pancreatic enzymes, BBM
Method: FIGS. 13A-13B. […] This complex mixture of substrates was treated under physiological conditions with a mixture of pancreatic enzymes (trypsin, chymotrypsin, carboxypeptidase, elastase), brush border membrane enzymes (derived from rat small intestine) and either (A) FM PEP or (B) MX PEP.
The resulting solution was neutralized using 10 M NaOH and diluted to 10 g/L in a phosphate buffer (40 mM, pH 6.5). […] Prolyl endopeptidase (FM or MX; 1×: 500 mU/ml; 5×: 2.5 U/ml; 10×: 5 U/ml) and rat intestinal brush border surface membranes (BB, 1×: 40 mU/ml, 2×: 80 mU/ml, DPP IV activity) were added to a total volume of 150 μl. The mixture was incubated at 37° C. and […] aliquots were taken at 0, 5, 10, 30 and 60 min and immediately heat deactivated.

PQPQLPYPQPQLP = assay: Site specificity of […] hydrolysis, LC/MS/MS; format: biochemical, wheat; settings: 100 μM peptide, 0.1 μM enzyme, early time points
Method: FIG. 10. Site specificity of […] hydrolysis by individual PEPs. HPLC-UV (215 nm) traces are shown for each reaction mixture. Initial cleavage fragments (100 μM (SEQ ID NO:4) […], 0.1 μM enzyme, t=5 min) were identified by tandem mass spectrometry. The starting material (SEQ ID NO:4) […] and the cleavage fragments A: (SEQ ID NO:4, aa. 1-8) […], B: (SEQ ID NO:4, aa 7-13) YPQPQLP, C: (SEQ ID NO:12, aa 1-6) PQPQLP, D: (SEQ ID NO:4, aa 2-6) QPQLP) are indicated in the traces.
The decrease in substrate concentration as well as concomitant intermediate and product build-up were monitored with HPLC analysis. RP-HPLC was performed on a system consisting of Beckman or Rainin Dynamax SD-200, a Varian 340 UV detector set at 215 nm and 280 nm. Solvent A was H2O with 0.1% TFA and solvent B was acetonitrile with 0.1% TFA; gradient used: 0-5% B in 0-15 min, 5-30% B in 15-30′, 30-100% B in 30-35 min, 100% B for 5′; flow 1 ml/min; separation was performed on a 4.6×150 mm reverse phase C-18 column (Vydac, Hesperia, Calif., USA). Samples were centrifuged for 10 min at 13,400 g, prior to injection of 10-100 μl. […] Thus, multiple peptides accumulate during the course of the reaction, some of which are secondary PEP substrates in themselves.
To analyze the regiospecificity of hydrolysis of (SEQ ID NO:4) […] by individual PEPs, samples corresponding to early time points were further analyzed by LC/MS/MS. […]

Molecule	resistance to pepsin (pepsin)	chain length selectivity, 13-mer vs 33-mer [1]	relative rates of proteolysis of PQPQLPYPQPQLP, 33-mer and other gluten peptides [2]	preferred site of cleavage in PQPQLPYPQPQLP (PQPQLPYPQPQLP)	time for breakdown of PQPQLPYPQPQLP and other smaller peptides [2]
B1	highly susceptible to pepsin catalyzed proteolysis	comparable selectivity for both peptides	at comparable rates	PQPQLPPYP|QPQLP	–
B2	highly susceptible to pepsin catalyzed proteolysis	clear preference for the 13-mer peptide	hydrolysis of the 33-mer occurred at a slower rate	PQPQLP|YPQPQLP	10 min
